# Data as given in publication PMC10310011, “Accelerated absorption of regular insulin administered via a vascularizing permeable microchamber implanted subcutaneously in diabetic Rattus norvegicus” (PLOS ONE, 2023).
# Conditions: rat, in vivo
# Source text: Male athymic nude R. norvegicus between 9–12 weeks of age and weighing 250–350 g were purchased from Envigo (Livermore, CA, USA). Because estrogen interferes with streptozotocin [44] (see next), only male animals were included. Athymic nude rats were chosen to abrogate a possible antibody response against the human insulin to be injected. Animals were housed for a seven-day acclimatization period before initiating any experimental procedures. To avoid endogenous insulin in subject rats from cross-reacting in the human insulin assays, animals were rendered diabetic by a single intraperitoneal injection, 60 mg/kg, of streptozotocin (Sigma-Aldrich, St. Louis, MO, USA). Blood glucose concentrations were monitored daily using a Freestyle Lite Glucose Monitoring System (Abbott Diabetes Care Inc., Alameda, CA, USA). Rats were considered diabetic when blood glucose concentrations greater than 200 mg/dl were recorded on three consecutive days. Rats verified as diabetic were maintained with exogenous long-acting insulin (Lantus, Sanofi-Aventis, Bridgewater, NJ, USA) throughout the study; maintenance insulin treatment also serves to forestall insulin resistance. Maintenance insulin therapy was suspended for 24 hours prior to each insulin kinetics study. Two days after the initial insulin-kinetics assay two empty, 1.5 cm^2 per side, single-chamber (having a nominal internal volume of 22.5 μl), implantable vascularizing microchambers, IVMs (Procyon Technologies LLC, Tucson, AZ, USA) (Fig 1A) were implanted subcutaneously on the dorsal aspect of each rat. The initial insulin kinetics assays were performed 7 days after STZ induction of diabetes. […] Plasma samples collected from each insulin kinetics assay were analyzed for human insulin concentration using a commercial human insulin ELISA kit (Alpco, Salem, NH, USA). […] The measured insulin concentrations were converted from IU/ml to μg/ml according to the manufacturer’s recommended conversion ratios of 1 IU of human insulin = 6nmol = 34.8 μg of insulin. […] The mean and standard deviation (SD) for each category were then calculated. […]
substance,measurement,setting,value
insulin human,"Plasma insulin curves after SC injection, diluted versus stock concentration",,did not vary significantly
same,95% CI of Tmax,sc,13.18 to 32.27 min
same,Tmax (mean peak time of plasma insulin),sc,22.7 min
